One assay has as its target T1, rHSP90α (Homo sapiens, UniProt P07900).
T1 construct: recombinant 732-amino acid (a.a.) full-length human HSP90α (rHSP90α; PeproTech Co., Cranbury, NJ, USA); purchased PeproTech Co., Cranbury, NJ, USA
Put plainly: ELISA for HSP90α-binding activities. The conditions noted are these: culture supernatants of six hybridoma clones. As for the experimental part: For assaying the HSP90α-binding activities of the prepared antibodies, 96-well plates were coated with 12.5 ng/ml of rHSP90α in the capture buffer (BioLegend, San Diego, CA, USA) by overnight incubation at 4° C. The coated plates were washed twice with PBST and then blocked with PBST plus 3% bovine serum albumin (BSA). The prepared antibodies were applied and incubated 2 h at room temperature. After three washes with PBST, horseradish peroxidase-conjugated secondary antibody was added and incubated at 37° C. for another 1 h. After three washes, 0.3 mg/ml of 3,3′,5,5′-tetramethylbenzidine in 0.015% H2O2 was added into each well and incubated in the dark at room temperature for 10 min. The reactions were stopped by the addition of 0.5 M H2SO4, and OD450 values were measured by an Infinite M200 microplate reader (TECAN, Männedorf, Switzerland). Additionally, the immunoglobulin (IgG) isotype characterization of anti-HSP90α antibodies was performed by using the Mouse Ig Isotyping ELISA Ready-Set-Go!™ Kit (eBioscience™, Thermo Fisher Scientific, Waltham, MA, USA). The ELISA protocol was also used to assay the secreted HSP90α levels of mouse serum samples as described previously. See Chen J S, Hsu Y M, Chen C C, Chen L L, Lee C C, Huang T S. Secreted heat shock protein 90α induces colorectal cancer cell invasion through CD91/LRP-1 and NF-κB-mediated integrin αV expression. […]
(In general: In an ELISA, binding on a coated surface is turned into a signal by an enzyme label.)

In assay [1] the target is T2, associations of CD91 with HSP90α and IKKα (Homo sapiens, UniProt P07900).
T2 construct: recombinant 732-amino acid (a.a.) full-length human HSP90α (rHSP90α; PeproTech Co., Cranbury, NJ, USA); purchased PeproTech Co., Cranbury, NJ, USA; host or cells: PANC-1 cells (CD91 and IKKα endogenous)
In words: Proximity ligation assay (PLA) in PANC-1 cells. It counts as cell-based. The conditions noted are these: 15 μg/ml rHSP90α, 10 μg/ml antibody. Here is the method: PANC-1 cells seeded onto glass coverslips at a density of 2×10^5 cells per 22×22-mm coverslip were incubated 16 h with 0.5% serum-containing medium at 37° C. plus a 5% CO2 humidified atmosphere. The cells were then added with PBS or 15 μg/ml of rHSP90α in the absence or presence of 10 μg/ml of control IgG or the tested anti-HSP90α antibody for another 24-h incubation. The treated cells were then fixed with 3% paraformaldehyde and blocked with the blocking solution provided in the Duolink in situ PLA kit (Olink Bioscience, Uppsala, Sweden). Furthermore, the cell samples were incubated overnight at 4° C. with anti-CD91 antibody (1:80, cat. #550495, BD Biosciences, San Jose, CA, USA) mixed with anti-HSP90α antibody (1:80, cat. #AHP-1339, AbD Serotec, Raleigh, NC, USA) or anti-IKKα antibody (1:80, cat. #3285, Epitomics Co., Burlingame, CA, USA). After washed trice with Tris-buffered saline plus 0.05% Tween 20, the cell samples were incubated with PLA probes for the subsequent ligation and amplification procedure according to the manufacturer's instructions for the Duolink in situ PLA kit. Finally, nuclei were counterstained with 4′,6′-diamidino-2-phenylindole (DAPI; Sigma-Aldrich). Images were photographed and analyzed using Leica TCS SP5 II confocal microscope and LAS AF Lite 4.0 software (Leica, Wetzlar, Germany).

The subject of another assay is SW620 and PANC-1 cells. Put plainly: Transwell invasion assay, rHSP90α-induced cancer cell invasion. It counts as cell-based, human. The note with it: SW620 and PANC-1, 15 μg/ml rHSP90α plus 10 μg/ml antibody. As for the experimental part:
(§1) In a 37° C. and 5% CO2 humidified incubator, cancer cells were subjected to serum starvation in 0.5% FBS-containing medium for 16 h, and then added with PBS or 15 μg/ml of rHSP90α in the absence or presence of 10 μg/ml of control IgG or the tested anti-HSP90α antibody. After another 24 h, the treated cells were harvested as aliquots (1×10^5 cells per aliquot) in 0.5% FBS-containing culture medium, and then each aliquot was seeded into a top chamber of Transwell inserts pre-coated with 5-fold diluted Matrigel (BD Biosciences). Cells were allowed 16 h to invade through the Matrigel toward the bottom chambers containing culture medium plus 10% FBS. The filters of the Transwell inserts were then fixed and stained with Giemsa. Invasive cells on the lower side of filters were photographed using the Axiovert S100/AxioCam HR microscope system (Carl Zeiss, Oberkochen, Germany) and further quantified by the Image-Pro Plus software (Media Cybernetics, Inc., Silver Spring, MD, USA).

Assay [2] has as its system SW620, PANC-1, and Panc 02 cells. Put plainly: Cell spheroid-forming assay, rHSP90α-induced gain-of-stemness. It counts as cell-based, human and mouse. The conditions noted are these: SW620, PANC-1, Panc 02; 15 μg/ml rHSP90α plus 10 μg/ml antibody. Here is the method:
One thousand cancer cells were seeded onto each well of 24-well plates pre-coated with a 4-mm thick layer of 0.5% agarose. After incubation 24 h with serum-free medium at 37° C. plus a 5% CO2 humidified atmosphere, cells were added with PBS or 15 μg/ml of rHSP90α in the absence or presence of 10 μg/ml of control IgG or the tested anti-HSP90α antibody. The incubation was kept for 10-14 days with supplements of some fresh serum-free medium every 3 days. Finally, the cell spheroids characterized by tight, non-adherent, and >100 μm in diameter were photographed and counted under an Olympus IX 71 inverted microscope (Center Valley, PA, USA). The spheroid formation % was calculated by the formula: (number of cell spheroids/1000)×100%.

The target in another assay is T3, HSP90α (Homo sapiens, UniProt P07900).
T3 construct: The full-length HSP90α (a.a. 1-732) and its 3 truncated fragments; 8×His; made in house; host or cells: Escherichia coli ClearColi, pET-23a
Put plainly: Epitope determination by ELISA (domain, peptide and alanine scanning). It counts as binding. The note with it: full-length and truncated HSP90α. An excerpt:
The full-length HSP90α (a.a. 1-732) and its 3 truncated fragments including the N-terminal plus Linker domains (a.a. 1-272), N terminus through Middle domain (a.a. 1-629), and C-terminal domain (a.a. 630-732) were cloned, expressed, and purified. Briefly, each cDNA sequence with a 8×His-tag was amplified by PCR from the human ORF Clone (NM_005348) with the primers containing Xho I and BamH I sites. The PCR products were purified, digested with restriction enzymes, and then inserted into pET-23a plasmid (Sigma-Aldrich). The recombinant plasmids were then transformed into Escherichia coli ClearColi® competent cells (Lucigen Co., Middleton, WI, USA), and expressions of the recombinant constructs were stimulated by the addition of isopropyl-D-thiogalacto-pyranoside. The expressed histidine-tagged full-length and truncated HSP90α were further purified by using the Ni—NTA column (Qiagen, Germantown, MD, USA) according to the manufacturer's instructions. The purified proteins were finally dialyzed against the storage buffer consisting of 25 mM Tris-HCl (pH, 7.0), 50 mM NaCl, 0.1% Triton X-100, 50% glycerol, 1 mM EDTA, and 1 mM DTT, and protein concentrations were determined by the Bradford protein assay (Bio-Rad Laboratories, Hercules, USA).
At first, the domain scanning strategy was used to roughly delineate the HSP90α region responsible for the binding with our prepared antibodies. […]

In a further assay the test system is PANC-1 cells. Put plainly: Transwell invasion assay, rHSP90α-induced PANC-1 invasion. The note with it: 15 μg/ml rHSP90α plus 10 μg/ml antibody. It counts as cell-based, human. Here is the method:
as §1, with “with PBS or 15 μg/ml of rHSP90α in the absence or presence of 10 μg/ml of control IgG or the tested anti-HSP90α antibody.” left out

B1: Clone-2: mouse anti-HSP90α monoclonal antibody, IgG2b κ; VH SEQ ID NO: 2, VL SEQ ID NO: 7 (antibody, V domains shown)
VH: EVQVVESGGGLVQPKGSLKLSCAASGFTFKTYAMNWVRQAPGKGLEWVARIRSKSRNYATYYADSVKDRFTISRDDSQFMFYLQMNNLKTEDTAMYYCVVGGSGFDYWGQGTTLTVSS
VL: DVLMTQTPLSLPVSLGDQASISCRSSQSIVHSNGNTYLEWYLQKPGQSPKLLIYKVGVPDRFSGSGSGTDFTLSISRVEAGDLGVYYCFQGSHVPWTFGGGTKLEIK
modifications: Heavy chain variable region; Light chain variable region
As to B1, in the assay with rHSP90α, the “HSP90α-binding levels (ELISA)” value is reported as “top two HSP90α-binding levels”. Moreover, in assay [1], the “blocking of the binding of eHSP90α with its cell-surface receptor CD91” value was “efficiently blocked” and the “blocking of the downstream association of CD91 with IKKα” value is on record as “efficiently blocked”. In the assay with SW620 and PANC-1 cells, the “rHSP90α-induced cancer cell invasion” value is given as “drastically abolished”. The “rHSP90α-induced spheroid-forming ability (gain-of-stemness)” value in assay [2] is “significantly inhibited”. Moreover, the “HSP90α region bound (domain scanning)” value with HSP90α is recorded as “bound to the a.a. 1-272 region as well as the full-length protein”.

B2: Clone-2-chimera: recombinant IgG1 antibody: Clone-2 VH and VL with human IgG constant domains (antibody, V domains shown)
VH: B1 VH
VL: DVLMTQTPLSLPVSLGDQASISCRSSQSIVHSNGNTYLEWYLQKPGQSPKLLIYKVSNRFSGVPDRFSGSGSGTDFTLSISRVEAGDLGVYYCFQGSHVPWTFGGGTKLEIK
Take B2: in the assay on PANC-1 cells, the “suppression of rHSP90α-induced invasiveness of PANC-1 cells” value is “superior to Clone-2-hB, Clone-2-hC, and their parental Clone-2”.

For the origin of these results see patent US20250333486A1, “Anti-HSP90 alpha antibody and uses thereof” (NATIONAL HEALTH RESEARCH INSTITUTES, priority 2021, published 2025).
